This passage reports Ho/Con_2aH results from patent publication US20180155451A1 (published 2018).

To fix the notation:
T1: FcγRIIa H (human, UniProt P12318 34-217)
T1 construct: extracellular domain; also called FcgRIIa H type; 2aH; not shown: His tag at the C terminus
T1 sequence (looked up): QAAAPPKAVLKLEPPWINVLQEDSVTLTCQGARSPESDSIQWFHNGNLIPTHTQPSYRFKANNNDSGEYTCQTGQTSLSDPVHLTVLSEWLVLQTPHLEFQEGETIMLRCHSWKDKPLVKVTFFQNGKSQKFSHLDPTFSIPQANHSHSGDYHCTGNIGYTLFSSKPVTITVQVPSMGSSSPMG

B1: GpH7-B3 variant S324_10E/GpL16-k0 (antibody, human IgG1, kappa)
heavy: not shown
light: DIVMTQSPLSLPVTPGEPASISCQASESLVHSNRNTYLHWYLQKPGQSPQLLIYKVSNRFSGVPDRFSGSGSGTDFTLKISRVEAEDVGVYYCSQNTHVPPTFGQGTKVEIERTVAAPSVFIFPPSDEQLKSGTASVVCLLNNFYPREAKVQWKVDNALQSGNSQESVTEQDSKDSTYSLSSTLTLSKADYEKHKVYACEVTHQGLSSPVTKSFNRGEC
notes: also called Ho Ab S324_10E
B2: GpH7-B3 variant S239_09D/GpL16-k0 (antibody, human IgG1, kappa)
heavy: not shown
light: B1 light
notes: also called Ho Ab S239_09D
B3: GpH7-B3 variant L328_06M/GpL16-k0 (antibody, human IgG1, kappa)
heavy: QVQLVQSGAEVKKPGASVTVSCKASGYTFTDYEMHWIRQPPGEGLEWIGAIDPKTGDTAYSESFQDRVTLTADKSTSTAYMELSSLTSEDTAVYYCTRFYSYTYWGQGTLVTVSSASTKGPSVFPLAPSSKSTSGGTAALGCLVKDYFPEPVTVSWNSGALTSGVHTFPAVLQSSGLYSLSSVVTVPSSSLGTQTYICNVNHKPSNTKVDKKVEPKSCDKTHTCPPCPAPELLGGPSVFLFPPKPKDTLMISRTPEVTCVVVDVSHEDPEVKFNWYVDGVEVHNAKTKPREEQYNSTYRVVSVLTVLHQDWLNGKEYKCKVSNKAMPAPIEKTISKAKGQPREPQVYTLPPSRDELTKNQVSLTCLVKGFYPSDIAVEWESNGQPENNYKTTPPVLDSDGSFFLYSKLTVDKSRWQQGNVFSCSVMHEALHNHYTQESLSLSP
light: B1 light
notes: also called Ho Ab L328_06M
B4: GpH7-B3 variant I332_04F/GpL16-k0 (antibody, human IgG1, kappa)
heavy: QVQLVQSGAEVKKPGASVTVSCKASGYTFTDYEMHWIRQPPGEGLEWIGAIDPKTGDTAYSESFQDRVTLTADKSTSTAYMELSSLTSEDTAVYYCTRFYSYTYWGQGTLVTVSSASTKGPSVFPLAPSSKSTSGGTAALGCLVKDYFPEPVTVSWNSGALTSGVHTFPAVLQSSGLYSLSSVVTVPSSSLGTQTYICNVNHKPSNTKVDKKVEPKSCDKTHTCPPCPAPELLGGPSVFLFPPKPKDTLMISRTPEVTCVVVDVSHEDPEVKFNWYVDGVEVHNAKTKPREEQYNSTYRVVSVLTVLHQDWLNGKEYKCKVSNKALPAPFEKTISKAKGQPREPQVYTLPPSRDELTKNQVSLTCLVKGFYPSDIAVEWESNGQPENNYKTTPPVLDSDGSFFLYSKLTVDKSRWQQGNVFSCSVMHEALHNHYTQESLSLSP
light: B1 light
notes: also called Ho Ab I332_04F
B5: GpH7-B3 variant I332_06M/GpL16-k0 (antibody, human IgG1, kappa)
heavy: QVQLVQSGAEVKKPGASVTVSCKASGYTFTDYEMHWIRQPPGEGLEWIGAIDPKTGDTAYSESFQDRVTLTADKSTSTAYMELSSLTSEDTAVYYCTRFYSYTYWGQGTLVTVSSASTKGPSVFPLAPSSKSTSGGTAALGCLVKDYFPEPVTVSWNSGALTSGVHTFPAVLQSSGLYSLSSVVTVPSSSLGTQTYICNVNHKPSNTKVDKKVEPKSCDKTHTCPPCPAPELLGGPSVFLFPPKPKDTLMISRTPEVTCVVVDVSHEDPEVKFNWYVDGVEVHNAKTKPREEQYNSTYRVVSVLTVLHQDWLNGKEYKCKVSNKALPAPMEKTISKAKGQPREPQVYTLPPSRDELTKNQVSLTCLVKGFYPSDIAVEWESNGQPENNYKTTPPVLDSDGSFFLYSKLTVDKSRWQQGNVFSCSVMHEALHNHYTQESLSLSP
light: B1 light
notes: also called Ho Ab I332_06M
B6: GpH7-B3 variant I332_14T/GpL16-k0 (antibody, human IgG1, kappa)
heavy: not shown
light: B1 light
notes: also called Ho Ab I332_14T
B7: GpH7-B3 variant K334_04F/GpL16-k0 (antibody, human IgG1, kappa)
heavy: not shown
light: B1 light
notes: also called Ho Ab K334_04F
B8: GpH7-B3 variant I332_10E/GpL16-k0 (antibody, human IgG1, kappa)
heavy: not shown
light: B1 light
notes: also called Ho Ab I332_10E
B9: GpH7-B3 variant K334_14T/GpL16-k0 (antibody, human IgG1, kappa)
heavy: not shown
light: B1 light
notes: also called Ho Ab K334_14T
B10: GpH7-B3 variant Q295_05P/GpL16-k0 (antibody, human IgG1, kappa)
heavy: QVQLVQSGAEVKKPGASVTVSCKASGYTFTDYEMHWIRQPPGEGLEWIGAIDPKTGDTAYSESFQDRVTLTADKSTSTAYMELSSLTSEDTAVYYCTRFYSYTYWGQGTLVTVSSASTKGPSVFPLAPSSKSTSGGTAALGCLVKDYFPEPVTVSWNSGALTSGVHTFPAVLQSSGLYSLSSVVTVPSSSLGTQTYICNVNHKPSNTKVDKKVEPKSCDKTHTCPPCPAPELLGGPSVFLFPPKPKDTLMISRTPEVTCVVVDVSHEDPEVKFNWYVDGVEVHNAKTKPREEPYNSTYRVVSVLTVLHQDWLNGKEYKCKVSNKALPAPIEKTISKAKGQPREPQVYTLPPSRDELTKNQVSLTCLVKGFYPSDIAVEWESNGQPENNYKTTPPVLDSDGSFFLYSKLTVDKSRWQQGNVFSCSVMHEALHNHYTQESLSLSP
light: B1 light
notes: also called Ho Ab Q295_05P
B11: GpH7-B3 variant G236_07I/GpL16-k0 (antibody, human IgG1, kappa)
heavy: not shown
light: B1 light
notes: also called Ho Ab G236_07I
B12: GpH7-B3 variant I332_03V/GpL16-k0 (antibody, human IgG1, kappa)
heavy: not shown
light: B1 light
notes: also called Ho Ab I332_03V
B13: GpH7-B3 variant T335_01G/GpL16-k0 (antibody, human IgG1, kappa)
heavy: not shown
light: B1 light
notes: also called Ho Ab T335_01G
B14: GpH7-B3 variant S337_14T/GpL16-k0 (antibody, human IgG1, kappa)
heavy: not shown
light: B1 light
notes: also called Ho Ab S337_14T
B15: GpH7-B3 variant L328_13S/GpL16-k0 (antibody, human IgG1, kappa)
heavy: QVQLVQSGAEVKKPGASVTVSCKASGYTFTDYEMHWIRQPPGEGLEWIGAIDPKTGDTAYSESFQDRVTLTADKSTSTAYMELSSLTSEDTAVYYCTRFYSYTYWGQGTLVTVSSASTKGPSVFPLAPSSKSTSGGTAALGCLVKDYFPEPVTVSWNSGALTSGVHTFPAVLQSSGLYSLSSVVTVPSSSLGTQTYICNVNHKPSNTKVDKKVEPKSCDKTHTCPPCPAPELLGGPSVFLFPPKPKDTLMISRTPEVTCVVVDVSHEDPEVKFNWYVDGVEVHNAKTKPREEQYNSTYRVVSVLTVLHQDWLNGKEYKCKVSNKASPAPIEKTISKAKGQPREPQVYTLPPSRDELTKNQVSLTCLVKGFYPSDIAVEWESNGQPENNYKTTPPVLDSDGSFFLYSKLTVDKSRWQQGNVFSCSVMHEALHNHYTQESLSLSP
light: B1 light
notes: also called Ho Ab L328_13S
B16: GpH7-B3 variant L235_20W/GpL16-k0 (antibody, human IgG1, kappa)
heavy: not shown
light: B1 light
notes: also called Ho Ab L235_20W
B17: GpH7-B3 variant K334_03V/GpL16-k0 (antibody, human IgG1, kappa)
heavy: not shown
light: B1 light
notes: also called Ho Ab K334_03V
B18: GpH7-B3 variant I332_09D/GpL16-k0 (antibody, human IgG1, kappa)
heavy: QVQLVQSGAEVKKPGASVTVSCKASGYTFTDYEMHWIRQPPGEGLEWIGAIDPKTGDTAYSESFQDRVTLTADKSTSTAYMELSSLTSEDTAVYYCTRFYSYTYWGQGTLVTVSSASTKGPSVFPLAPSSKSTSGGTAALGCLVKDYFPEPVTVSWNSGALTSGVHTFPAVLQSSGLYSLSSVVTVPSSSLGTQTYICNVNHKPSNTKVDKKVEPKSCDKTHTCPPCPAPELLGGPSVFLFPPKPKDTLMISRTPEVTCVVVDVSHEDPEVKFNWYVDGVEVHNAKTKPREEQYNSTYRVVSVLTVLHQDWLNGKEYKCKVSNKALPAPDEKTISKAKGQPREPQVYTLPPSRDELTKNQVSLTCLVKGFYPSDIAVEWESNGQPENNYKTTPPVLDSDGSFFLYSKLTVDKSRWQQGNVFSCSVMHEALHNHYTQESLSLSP
light: B1 light
notes: also called Ho Ab I332_09D
B19: GpH7-B3 variant L328_14T/GpL16-k0 (antibody, human IgG1, kappa)
heavy: not shown
light: B1 light
notes: also called Ho Ab L328_14T
B20: GpH7-B3 variant K334_15Y/GpL16-k0 (antibody, human IgG1, kappa)
heavy: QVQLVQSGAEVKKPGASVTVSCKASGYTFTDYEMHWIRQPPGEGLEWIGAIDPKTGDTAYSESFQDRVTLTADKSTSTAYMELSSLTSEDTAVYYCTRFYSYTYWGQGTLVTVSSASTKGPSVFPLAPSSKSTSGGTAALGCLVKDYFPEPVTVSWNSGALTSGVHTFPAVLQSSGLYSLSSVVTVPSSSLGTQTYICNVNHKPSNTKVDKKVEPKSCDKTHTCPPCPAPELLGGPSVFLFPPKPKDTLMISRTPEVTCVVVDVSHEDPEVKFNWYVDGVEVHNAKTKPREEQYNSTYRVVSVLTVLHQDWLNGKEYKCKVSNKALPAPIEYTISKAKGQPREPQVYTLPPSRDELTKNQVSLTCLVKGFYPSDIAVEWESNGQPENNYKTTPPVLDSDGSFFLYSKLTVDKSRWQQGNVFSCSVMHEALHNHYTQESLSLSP
light: B1 light
notes: also called Ho Ab K334_15Y
B21: GpH7-B3 variant H268_10E/GpL16-k0 (antibody, human IgG1, kappa)
heavy: not shown
light: B1 light
notes: also called Ho Ab H268_10E
B22: GpH7-B3 variant K326_14T/GpL16-k0 (antibody, human IgG1, kappa)
heavy: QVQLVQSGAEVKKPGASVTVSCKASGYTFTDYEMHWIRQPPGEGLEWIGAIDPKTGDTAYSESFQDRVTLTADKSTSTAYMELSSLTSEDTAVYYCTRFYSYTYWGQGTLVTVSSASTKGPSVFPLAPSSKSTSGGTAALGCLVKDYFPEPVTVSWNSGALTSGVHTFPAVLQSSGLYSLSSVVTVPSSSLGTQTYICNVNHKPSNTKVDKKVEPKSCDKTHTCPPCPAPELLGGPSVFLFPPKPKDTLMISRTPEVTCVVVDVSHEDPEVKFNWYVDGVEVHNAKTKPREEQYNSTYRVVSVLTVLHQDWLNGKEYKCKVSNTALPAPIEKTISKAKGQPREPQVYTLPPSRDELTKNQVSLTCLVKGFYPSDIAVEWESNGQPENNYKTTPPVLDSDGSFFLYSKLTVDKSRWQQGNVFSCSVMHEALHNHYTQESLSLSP
light: B1 light
notes: also called Ho Ab K326_14T
B23: GpH7-B3 variant I332_19Q/GpL16-k0 (antibody, human IgG1, kappa)
heavy: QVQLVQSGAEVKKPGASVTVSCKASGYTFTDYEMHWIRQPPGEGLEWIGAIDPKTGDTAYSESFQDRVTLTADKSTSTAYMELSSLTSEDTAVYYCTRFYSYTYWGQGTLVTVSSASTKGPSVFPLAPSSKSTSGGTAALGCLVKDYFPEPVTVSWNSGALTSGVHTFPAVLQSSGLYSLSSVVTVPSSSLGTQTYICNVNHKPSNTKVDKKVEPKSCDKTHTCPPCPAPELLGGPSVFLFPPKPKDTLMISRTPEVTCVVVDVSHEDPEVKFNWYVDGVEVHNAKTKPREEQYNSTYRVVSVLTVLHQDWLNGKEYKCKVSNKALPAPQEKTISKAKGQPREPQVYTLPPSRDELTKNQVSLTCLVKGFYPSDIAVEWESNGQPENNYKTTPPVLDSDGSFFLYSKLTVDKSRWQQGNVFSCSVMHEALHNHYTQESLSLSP
light: B1 light
notes: also called Ho Ab I332_19Q
B24: GpH7-B3 variant S324_06M/GpL16-k0 (antibody, human IgG1, kappa)
heavy: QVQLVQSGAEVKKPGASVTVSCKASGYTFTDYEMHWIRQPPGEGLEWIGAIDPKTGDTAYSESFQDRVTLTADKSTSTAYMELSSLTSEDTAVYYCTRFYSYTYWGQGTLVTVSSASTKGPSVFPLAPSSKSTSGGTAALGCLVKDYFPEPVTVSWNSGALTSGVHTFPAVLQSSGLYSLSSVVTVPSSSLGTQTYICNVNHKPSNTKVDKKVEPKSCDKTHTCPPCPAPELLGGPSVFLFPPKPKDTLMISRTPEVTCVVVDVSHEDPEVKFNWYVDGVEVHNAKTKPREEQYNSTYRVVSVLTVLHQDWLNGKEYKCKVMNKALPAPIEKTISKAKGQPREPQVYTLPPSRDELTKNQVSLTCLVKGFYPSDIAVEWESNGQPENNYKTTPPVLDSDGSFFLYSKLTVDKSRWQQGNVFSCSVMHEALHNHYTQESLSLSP
light: B1 light
notes: also called Ho Ab S324_06M
B25: GpH7-B3 variant H268_09D/GpL16-k0 (antibody, human IgG1, kappa)
heavy: not shown
light: B1 light
notes: also called Ho Ab H268_09D
B26: GpH7-B3 variant I332_15Y/GpL16-k0 (antibody, human IgG1, kappa)
heavy: not shown
light: B1 light
notes: also called Ho Ab I332_15Y
B27: GpH7-B3 variant S324_20W/GpL16-k0 (antibody, human IgG1, kappa)
heavy: not shown
light: B1 light
notes: also called Ho Ab S324_20W
B28: GpH7-B3 variant I336_08L/GpL16-k0 (antibody, human IgG1, kappa)
heavy: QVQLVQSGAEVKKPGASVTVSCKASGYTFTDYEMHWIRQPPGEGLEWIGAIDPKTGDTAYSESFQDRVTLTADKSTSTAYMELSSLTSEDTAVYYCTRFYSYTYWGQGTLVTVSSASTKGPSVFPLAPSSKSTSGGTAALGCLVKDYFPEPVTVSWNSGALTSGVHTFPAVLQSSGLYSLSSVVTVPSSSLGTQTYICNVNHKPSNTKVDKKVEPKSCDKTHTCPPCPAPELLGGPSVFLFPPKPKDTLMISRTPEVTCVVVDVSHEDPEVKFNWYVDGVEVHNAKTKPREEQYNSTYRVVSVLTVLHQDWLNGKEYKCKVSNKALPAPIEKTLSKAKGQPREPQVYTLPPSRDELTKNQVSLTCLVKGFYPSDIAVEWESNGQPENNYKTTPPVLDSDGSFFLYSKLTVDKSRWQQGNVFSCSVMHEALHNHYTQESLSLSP
light: B1 light
notes: also called Ho Ab I336_08L

This assay addresses T1, FcγRIIa H. The experiment in a line: SPR Biacore, relative binding. (SPR reads the build-up and loss of mass on a sensor chip optically.)
As to B1, the Ho/Con_2aH is 104 % of GpH7-B3/GpL16-k0 (=100).

For the molecule B2, the Ho/Con_2aH was 112 % of GpH7-B3/GpL16-k0 (=100). For the molecule B3, the Ho/Con_2aH was 100 % of GpH7-B3/GpL16-k0 (=100). Turning to B4, the Ho/Con_2aH was 111 % of GpH7-B3/GpL16-k0 (=100).

As for B5, the Ho/Con_2aH is 114 % of GpH7-B3/GpL16-k0 (=100). As for B6, the figure is 125 % of GpH7-B3/GpL16-k0 (=100). With B7 the figure was 103 % of GpH7-B3/GpL16-k0 (=100); with B8, 117 % of GpH7-B3/GpL16-k0 (=100); with B9, 105 % of GpH7-B3/GpL16-k0 (=100). For B10, the Ho/Con_2aH is 106 % of GpH7-B3/GpL16-k0 (=100). As to B11, the Ho/Con_2aH is 101 % of GpH7-B3/GpL16-k0 (=100). B12: the Ho/Con_2aH is 106 % of GpH7-B3/GpL16-k0 (=100). For the molecule B13, the Ho/Con_2aH was 101 % of GpH7-B3/GpL16-k0 (=100). In the case of B14, the Ho/Con_2aH was 105 % of GpH7-B3/GpL16-k0 (=100). In the case of B15, the Ho/Con_2aH is 131 % of GpH7-B3/GpL16-k0 (=100). In the case of B16, the Ho/Con_2aH is 112 % of GpH7-B3/GpL16-k0 (=100). B17: the Ho/Con_2aH is 111 % of GpH7-B3/GpL16-k0 (=100).

Regarding B18, the Ho/Con_2aH is 130 % of GpH7-B3/GpL16-k0 (=100). B19: the Ho/Con_2aH is 110 % of GpH7-B3/GpL16-k0 (=100).

As to B20, the Ho/Con_2aH is 110 % of GpH7-B3/GpL16-k0 (=100). With B21, the Ho/Con_2aH was 126 % of GpH7-B3/GpL16-k0 (=100). B22: the Ho/Con_2aH is 118 % of GpH7-B3/GpL16-k0 (=100). With B23 the figure was 114 % of GpH7-B3/GpL16-k0 (=100); with B24, 123 % of GpH7-B3/GpL16-k0 (=100); with B25, 136 % of GpH7-B3/GpL16-k0 (=100). In the case of B26, the Ho/Con_2aH is 126 % of GpH7-B3/GpL16-k0 (=100).

For B27, the Ho/Con_2aH is 108 % of GpH7-B3/GpL16-k0 (=100). B28: the Ho/Con_2aH was 101 % of GpH7-B3/GpL16-k0 (=100).
